From patent US20240166755A1, “CHIMERIC ANTIGEN RECEPTORS TARGETING CANCER” (University of Southern California, priority 2016, published 2024)

B1: CD8SP-MPL-161-(vL-vH)-Myc-BBz-T2A-PAC(021015-R07): CAR targeting MPL: 161 scFv, Myc tag, CD8 hinge/TM, 41BB, CD3z, T2A, puromycin resistance (protein)
chain: MALPVTALLLPLALLLHAARPDDIQMTQSSSSFSVSLGDRVTITCMASEDIYIRLAWYQQKPGNAPRLLISAATSLETGVPSRFSGSGSGKDYTLSITSLQTEDVGTYYCQQYWSSPWTFGGGTKLEINGGGGSGGGGSGGGGSDVQLQESGPGLVKPSQSLSLTCTVTGYSITSDYTWNWIRQFPGNKLEWMGYITYSGSTSYNPSLKSRNSITRDTSKNQFFLQLNSVTTEDTATYYCARLGRRYTMDYWGQGTSVTVSSTREQKLISEEDLAKPTTTPAPRPPTPAPTIASQPLSLRPEACRPAAGGAVHTRGLDFACDIYIWAPLAGTCGVLLLSLVITLYCKRGRKKLLYIFKQPFMRPVQTTQEEDGCSCRFPEEEEGGCELRVKFSRSADAPAYQQGQNQLYNELNLGRREEYDVLDKRRGRDPEMGGKPRRKNPQEGLYNELQKDKMAEAYSEIGMKGERRRGKGHDGLYQGLSTATKDTYDALHMQALPPRSSGSGEGRGSLLTCGDVEENPGPHMTEYKPTVRLATRDDVPRAVRTLAAAFADYPATRHTVDPDRHIERVTELQELFLTRVGLDIGKVWVADDGAAVAVWTTPESVEAGAVFAEIGPRMAELSGSRLAAQQQMEGLLAPHRPKEPAWFLATVGVSPDHQGKGLGSAVVLPGVEAAERAGVPAFLETSAPRNLPFYERLGFTVTADVEVPEGPRTWCMTRKPGA
modifications: listed as DNA
notes: CAR targeting MPL: 161 scFv, Myc tag, CD8 hinge/TM, 41BB, CD3z, T2A, puromycin resistance
B2: CD8SP-161-(vL-vH)-Myc-CD28z-T2A-PAC(021715-Z07): CAR targeting MPL: 161 scFv with CD28 hinge, transmembrane and cytosolic domains and CD3z (protein)
chain: MALPVTALLLPLALLLHAARPDDIQMTQSSSSFSVSLGDRVTITCMASEDIYIRLAWYQQKPGNAPRLLISAATSLETGVPSRFSGSGSGKDYTLSITSLQTEDVGTYYCQQYWSSPWTFGGGTKLEINGGGGSGGGGSGGGGSDVQLQESGPGLVKPSQSLSLTCTVTGYSITSDYTWNWIRQFPGNKLEWMGYITYSGSTSYNPSLKSRNSITRDTSKNQFFLQLNSVTTEDTATYYCARLGRRYTMDYWGQGTSVTVSSTREQKLISEEDLKIEVMYPPPYLDNEKSNGTIIHVKGKHLCPSPLFPGPSKPFWVLVVVGGVLACYSLLVTVAFIIFWVRSKRSRLLHSDYMNMTPRRPGPTRKHYQPYAPPRDFAAYRSRVKFSRSADAPAYQQGQNQLYNELNLGRREEYDVLDKRRGRDPEMGGKPRRKNPQEGLYNELQKDKMAEAYSEIGMKGERRRGKGHDGLYQGLSTATKDTYDALHMQALPPRSSGSGEGRGSLLTCGDVEENPGPHMTEYKPTVRLATRDDVPRAVRTLAAAFADYPATRHTVDPDRHIERVTELQELFLTRVGLDIGKVWVADDGAAVAVWTTPESVEAGAVFAEIGPRMAELSGSRLAAQQQMEGLLAPHRPKEPAWFLATVGVSPDHQGKGLGSAVVLPGVEAAERAGVPAFLETSAPRNLPFYERLGFTVTADVEVPEGPRTWCMTRKPGA
modifications: listed as DNA
notes: CAR targeting MPL: 161 scFv with CD28 hinge, transmembrane and cytosolic domains and CD3z
B3: CD8SP-AB317-(vL-vH)-Myc-CD28z-T2A-PAC(031615-T04): CAR construct targeting MPL, AB317 scFv, CD28 costimulatory domain (protein)
chain: MALPVTALLLPLALLLHAARPDIVLTQSPASLAVSLGQSVTISCRASESVEYYGTSLMQWYQQKPGQPPKLLIYGASNVESGVPARFSGSGSGTDFSLNIHPVEEDDIAMYFCQQSRKVPWTFGGGTKLEIKGGGGSGGGGSGGGGSEVKLVESGGGLVKPGGSRKLSCAASGFTFSSYTMSWVRQTPAKRLEWVATISSGSSTIYYADTVKGRFTISRDNAKNTLFLQMTSLRSEDTAMYYCARRWFLDCWGQGTTLTVSSTREQKLISEEDLKIEVMYPPPYLDNEKSNGTIIHVKGKHLCPSPLFPGPSKPFWVLVVVGGVLACYSLLVTVAFIIFWVRSKRSRLLHSDYMNMTPRRPGPTRKHYQPYAPPRDFAAYRSRVKFSRSADAPAYQQGQNQLYNELNLGRREEYDVLDKRRGRDPEMGGKPRRKNPQEGLYNELQKDKMAEAYSEIGMKGERRRGKGHDGLYQGLSTATKDTYDALHMQALPPRSSGSGEGRGSLLTCGDVEENPGPHMTEYKPTVRLATRDDVPRAVRTLAAAFADYPATRHTVDPDRHIERVTELQELFLTRVGLDIGKVWVADDGAAVAVWTTPESVEAGAVFAEIGPRMAELSGSRLAAQQQMEGLLAPHRPKEPAWFLATVGVSPDHQGKGLGSAVVLPGVEAAERAGVPAFLETSAPRNLPFYERLGFTVTADVEVPEGPRTWCMTRKPGA
modifications: listed as DNA
B4: CD8SP-178-(vL-vH)-Myc-CD28z-T2A-PAC(031615-R04): CAR construct targeting MPL, 178 scFv, CD28 costimulatory domain (protein)
chain: MALPVTALLLPLALLLHAARPDIVMTQAAPSIPVTPGESVSISCRSDKSLLHSNGNTYLFWFLQRPGQSPQLLIYRMSNLASGVPDRFSGSGSGTAFTLRISGVEAEDVGVYYCMQHLEYPYTFGGGTKLEIKGGGGSGGGGSGGGGSQVQLQQSGPELVKPGASVKMSCKASGYAFSSSWLNWVRQRPGKGLEWIGRIYPGDGENHYNGKFKGKATLTADKSSSTGYMQLSSLTSEDSAVYFCASYYEGGYWGQGTLITVSATREQKLISEEDLKIEVMYPPPYLDNEKSNGTIIHVKGKHLCPSPLFPGPSKPFWVLVVVGGVLACYSLLVTVAFIIFWVRSKRSRLLHSDYMNMTPRRPGPTRKHYQPYAPPRDFAAYRSRVKFSRSADAPAYQQGQNQLYNELNLGRREEYDVLDKRRGRDPEMGGKPRRKNPQEGLYNELQKDKMAEAYSEIGMKGERRRGKGHDGLYQGLSTATKDTYDALHMQALPPRSSGSGEGRGSLLTCGDVEENPGPHMTEYKPTVRLATRDDVPRAVRTLAAAFADYPATRHTVDPDRHIERVTELQELFLTRVGLDIGKVWVADDGAAVAVWTTPESVEAGAVFAEIGPRMAELSGSRLAAQQQMEGLLAPHRPKEPAWFLATVGVSPDHQGKGLGSAVVLPGVEAAERAGVPAFLETSAPRNLPFYERLGFTVTADVEVPEGPRTWCMTRKPGA
modifications: listed as DNA
B5: CD8SP-12E10-(vL-vH)-Myc-CD28z-T2A-PAC(031615-S03): CAR construct targeting MPL, 12E10 scFv, CD28 costimulatory domain (protein)
chain: MALPVTALLLPLALLLHAARPDQVQLQQSGPGLVKPSETLSLTCTVSGDSISSYYWSWIRQPPGKGLEWIGYIYYSGSTNYNPSLKSRVTISVDTSKSQFSLKLSSVTAADTAVYYCARGRYFDVWGRGTMVTSSGGGGSGGGGSGGGGSSSYVLTQPPSVSGSPGQSITISCTGTSSDVGGYNYVSWYQQHPGKAPKLMIYEGSKRPSGVSNRFSGSKSGNTASLTISGLQAEDEADYYCSSYTTRSTRVFGGGTKLTVLGAAATREQKLISEEDLKIEVMYPPPYLDNEKSNGTIIHVKGKHLCPSPLFPGPSKPFWVLVVVGGVLACYSLLVTVAFIIFWVRSKRSRLLHSDYMNMTPRRPGPTRKHYQPYAPPRDFAAYRSRVKFSRSADAPAYQQGQNQLYNELNLGRREEYDVLDKRRGRDPEMGGKPRRKNPQEGLYNELQKDKMAEAYSEIGMKGERRRGKGHDGLYQGLSTATKDTYDALHMQALPPRSSGSGEGRGSLLTCGDVEENPGPHMTEYKPTVRLATRDDVPRAVRTLAAAFADYPATRHTVDPDRHIERVTELQELFLTRVGLDIGKVWVADDGAAVAVWTTPESVEAGAVFAEIGPRMAELSGSRLAAQQQMEGLLAPHRPKEPAWFLATVGVSPDHQGKGLGSAVVLPGVEAAERAGVPAFLETSAPRNLPFYERLGFTVTADVEVPEGPRTWCMTRKPGA
modifications: listed as DNA
B6: CD8SP-MPL-VB22Bw4-(vL-vH)-Myc-CD28z-T2A-PAC(031615-B06): CAR construct targeting MPL, VB22Bw4 scFv, CD28 costimulatory domain (protein)
chain: MALPVTALLLPLALLLHAARPDDIVMTQSPLSLPVTPGEPASISCRSSKSLLHSNGNTYLYWFLQKPGQSPQLLIYRMSNLASGVPDRFSGSGSGTDFTLKISRVEAEDVGVYYFMQHIEYPFTFGQGTKLEIKGGGGSGGGGSGGGGSQVQLVQSGPEVKKPGASVKVSCKASGYTFTNSWMNWVRQRPGKGLEWIGRIYPGDGETIYNGKFRVRVTITADESTSTAYMQLSSLRSEDTAVYYCARGYDDYSFAYWGQGTTVTVSSTREQKLISEEDLKIEVMYPPPYLDNEKSNGTIIHVKGKHLCPSPLFPGPSKPFWVLVVVGGVLACYSLLVTVAFIIFWVRSKRSRLLHSDYMNMTPRRPGPTRKHYQPYAPPRDFAAYRSRVKFSRSADAPAYQQGQNQLYNELNLGRREEYDVLDKRRGRDPEMGGKPRRKNPQEGLYNELQKDKMAEAYSEIGMKGERRRGKGHDGLYQGLSTATKDTYDALHMQALPPRSSGSGEGRGSLLTCGDVEENPGPHMTEYKPTVRLATRDDVPRAVRTLAAAFADYPATRHTVDPDRHIERVTELQELFLTRVGLDIGKVWVADDGAAVAVWTTPESVEAGAVFAEIGPRMAELSGSRLAAQQQMEGLLAPHRPKEPAWFLATVGVSPDHQGKGLGSAVVLPGVEAAERAGVPAFLETSAPRNLPFYERLGFTVTADVEVPEGPRTWCMTRKPGA
modifications: listed as DNA

Columns and labels:
[1] = system: MPL-expressing HEL.92.1.7 (HEL) cells; experiment: Jurkat-NFAT-EGFP reporter assay, co-culture with HEL cells (Table 25); assay type: cell-based, human; details: FACS
Description: (§1) Cells were subsequently co-cultured with MPL-expressing HEL.92.1.7 (HEL) cells. […] CAR construct with HEL cells. The experiment was repeated by co-culturing the Jurkat-NFAT-EGFP cells with either RAJI cells, which have weak MPL expression, or with RAJI-MPL cells that were engineered to ectopically express human MPL receptor.

[2] = system: HEL cells stably expressing GLuc; experiment: GLuc cell death assay, HEL-GLuc target cells; details: for GLuc activity (lysis of target cells): T cells, puromycin selected, E:T 10:1, 4 hours
Description: The blood samples to isolate Peripheral blood mononuclear cells (PBMCs) were obtained from healthy de-identified adult donors. PBMC were isolated from buffy coats by Ficoll-Hypaque gradient centrifugation and re-suspended in XVIVO medium (Lonza) supplanted with 10 ng/ml soluble anti-CD3, 10 ng/ml soluble anti-CD28 and 100 IU recombinant human-IL2. […] The PBMC expressing the indicated CARs and uninfected PBMC were co-cultured with HEL-GLuc target cells for 4 h and lysis of target cells measured by the single-step homogenous GLuc assay by injecting 0.5× CTZ assay buffer as described above.
Cells were selected with puromycin and expanded.
Cells were subsequently co-cultured overnight with HEL.92.1.7 cells that had been engineered to express GLuc.

[3] = system: RAJI-MPL cells; experiment: Jurkat-NFAT-EGFP reporter assay, co-culture with RAJI-MPL or RAJI-vector cells (Table 25); assay type: cell-based, human; details: RAJI-MPL cells compared with RAJI-vector cells
Description: as §1

[4] = system: Jurkat cells stably expressing MPL and GLuc; experiment: GLuc cell death assay, Jurkat-MPL-GLuc target cells; details: T cells, puromycin selected, E:T 10:1, 4 hours

| Molecule | EGFP expression (NFAT-EGFP reporter) [1] | killing of HEL-GLuc cells ([2]; CAR-expressing PBMC, 4 h, versus uninfected PBMC) | EGFP expression (NFAT-EGFP reporter) [3] | GLuc activity (lysis of target cells) [4] | GLuc activity (lysis of target cells) [2] |
| --- | --- | --- | --- | --- | --- |
| B1 | strongest | increased killing | strongest | – | – |
| B2 | strongest | – | strongest | stronger | stronger |
| B3 | – | – | – | stronger | stronger |
| B4 | – | – | – | modest | modest |
| B5 | – | – | – | stronger | – |
| B6 | – | – | – | modest | – |
